# Changes are numbered by the printed parent chain.
# T1: nPfh1 (nuclear isoform, wild-type) (Schizosaccharomyces pombe, UniProt Q9UUA2-2 1-785)
# T1 sequence: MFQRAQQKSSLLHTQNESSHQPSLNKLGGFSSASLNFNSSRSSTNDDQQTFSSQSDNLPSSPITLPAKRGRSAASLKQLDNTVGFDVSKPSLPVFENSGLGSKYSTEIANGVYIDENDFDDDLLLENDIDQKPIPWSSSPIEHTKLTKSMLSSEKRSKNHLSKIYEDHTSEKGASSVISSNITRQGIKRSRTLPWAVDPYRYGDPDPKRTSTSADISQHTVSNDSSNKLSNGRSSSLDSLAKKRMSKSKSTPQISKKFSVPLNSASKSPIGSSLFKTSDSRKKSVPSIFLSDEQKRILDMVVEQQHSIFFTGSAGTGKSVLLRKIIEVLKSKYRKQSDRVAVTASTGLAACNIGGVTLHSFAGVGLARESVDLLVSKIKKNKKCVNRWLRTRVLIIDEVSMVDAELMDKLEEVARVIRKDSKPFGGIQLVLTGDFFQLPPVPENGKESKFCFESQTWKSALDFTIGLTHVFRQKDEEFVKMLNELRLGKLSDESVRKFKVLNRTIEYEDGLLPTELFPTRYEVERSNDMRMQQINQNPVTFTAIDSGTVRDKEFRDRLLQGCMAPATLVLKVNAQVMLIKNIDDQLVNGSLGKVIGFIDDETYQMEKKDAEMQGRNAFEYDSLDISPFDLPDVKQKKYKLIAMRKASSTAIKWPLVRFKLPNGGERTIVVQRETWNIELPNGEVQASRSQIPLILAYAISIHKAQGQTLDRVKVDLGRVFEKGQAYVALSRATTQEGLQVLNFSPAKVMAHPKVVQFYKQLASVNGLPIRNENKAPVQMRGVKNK
# T2: nPfh1-L430A (Schizosaccharomyces pombe, UniProt Q9UUA2-2 1-785, L410A)
# T2 sequence: T1 sequence with L410A
# T3: nPfh1-L430P (Schizosaccharomyces pombe, UniProt Q9UUA2-2 1-785, L410P)
# T3 sequence: T1 sequence with L410P
# T4: nPfh1-Δ21 (Schizosaccharomyces pombe, UniProt Q9UUA2-2 1-785, del408-428)
# T4 sequence: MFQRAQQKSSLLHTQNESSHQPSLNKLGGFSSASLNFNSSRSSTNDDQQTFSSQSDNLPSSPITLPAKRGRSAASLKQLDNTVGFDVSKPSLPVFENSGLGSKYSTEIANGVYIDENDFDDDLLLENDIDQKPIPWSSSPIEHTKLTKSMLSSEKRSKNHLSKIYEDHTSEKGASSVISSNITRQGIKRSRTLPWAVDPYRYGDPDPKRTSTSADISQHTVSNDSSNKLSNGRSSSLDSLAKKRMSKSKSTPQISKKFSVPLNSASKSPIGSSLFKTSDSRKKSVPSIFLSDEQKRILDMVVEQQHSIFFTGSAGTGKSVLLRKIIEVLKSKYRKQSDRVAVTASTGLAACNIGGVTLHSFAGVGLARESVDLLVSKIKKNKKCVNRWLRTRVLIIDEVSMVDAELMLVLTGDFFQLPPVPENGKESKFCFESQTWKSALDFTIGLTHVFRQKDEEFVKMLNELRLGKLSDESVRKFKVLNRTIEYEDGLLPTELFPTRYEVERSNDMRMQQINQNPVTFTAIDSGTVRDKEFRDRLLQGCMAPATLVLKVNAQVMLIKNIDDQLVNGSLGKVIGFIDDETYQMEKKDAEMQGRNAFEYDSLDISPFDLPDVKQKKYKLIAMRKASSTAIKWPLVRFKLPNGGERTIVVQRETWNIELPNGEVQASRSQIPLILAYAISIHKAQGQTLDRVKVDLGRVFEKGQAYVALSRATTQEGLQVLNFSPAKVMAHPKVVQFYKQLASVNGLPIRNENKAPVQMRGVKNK
# B1: 3'-5' DNA/DNA partial duplex (dsDNA)
# DNA 1: TCGATGGTACGGACGTGCTTAAAGAAAAAAAAAA
# DNA 2: TCGATGGTACGGACGTGCTTAA
# B2: Y-fork (dsDNA)
# DNA 1: AAAAAAAAAAGATTAAGCACGTCCGTACCATCGA
# DNA 2: B1 DNA 1
# B3: Duplex DNA/DNA (dsDNA)
# DNA 1: TTAAGCACGTCCGTACCATCGA
# DNA 2: TCGATGGTACGGACGTGCTTAA
# Experiments:
# Assay in all cases: EMSA
# [1] = biological target: T1, nPfh1 (nuclear isoform, wild-type)
# nPfh1-L430A = biological target: T2, nPfh1-L430A
# nPfh1-L430P = biological target: T3, nPfh1-L430P
# nPfh1-Δ21 = biological target: T4, nPfh1-Δ21
Binder,binding result [1],binding signal (nPfh1-L430A) [% bound],binding signal (nPfh1-L430P) [% bound],binding signal (nPfh1-Δ21) [% bound]
B1,no binding,,,
B2,,< 5,< 5,< 5
B3,no binding,,,

# Reference: paper PMC6144812
